B1: Transcriptional repressor OPI1 (Saccharomyces cerevisiae), P21957 (parent)
chain: MSENQRLGLSEEEVEAAEVLGVLKQSCRQKSQPSEDVSQADKMPASESSTTPLNILDRVSNKIISNVVTFYDEINTNKRPLKSIGRLLDDDDDEHDDYDYNDDEFFTNKRQKLSRAIAKGKDNLKEYKLNMSIESKKRLVTCLHLLKLANKQLSDKISCLQDLVEKEQVHPLHKQDGNARTTTGAGEDETSSDEDDDDEEFFDASEQVNASEQSIVVKMEVVGTVKKVYSLISKFTANSLPEPARSQVRESLLNLPTNWFDSVHSTSLPHHASFHYANCEEQKVEQQQQQQQQQQQQQLLQQQLLQQQQQKRNKDGDDSASPSSSVTANGKVLILAKESLEMVRNVMGVVDSTLGKAEEWVKQKQEVKEMIRERFLQQQQQYRQQQQKDGNYVKPSQDNVDSKD
partner: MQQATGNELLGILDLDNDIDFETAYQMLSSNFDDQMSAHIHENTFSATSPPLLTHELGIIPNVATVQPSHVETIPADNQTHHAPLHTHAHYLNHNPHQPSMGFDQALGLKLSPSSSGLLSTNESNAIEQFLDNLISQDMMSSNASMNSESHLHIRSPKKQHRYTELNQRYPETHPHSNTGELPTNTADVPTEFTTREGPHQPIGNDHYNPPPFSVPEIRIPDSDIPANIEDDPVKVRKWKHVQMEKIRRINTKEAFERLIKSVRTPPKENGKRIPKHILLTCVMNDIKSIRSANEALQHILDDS

Variants of: B1
Settings: with ino2_yeast INO2, P26798

Which “effect of a mutation on the interaction” value does the source give for MSENQRLGLSEEEVEAAEVLGVLKQSCRQKSQPSEDVSQADKMPASESSTTPLNILDRVSNKIISNVVTFYDEINTNKRPLKSIGRLLDDDDDEHDDYDYNDDEFFTNKRQKLSRAIAKGKDNLKEYKLNMSIESKKRLVTCLHLLKLANKQLSDKISCAQDLVEKEQVHPLHKQDGNARTTTGAGEDETSSDEDDDDEEFFDASEQVNASEQSIVVKMEVVGTVKKVYSLISKFTANSLPEPARSQVRESLLNLPTNWFDSVHSTSLPHHASFHYANCEEQKVEQQQQQQQQQQQQQLLQQQLLQQQQQKRNKDGDDSASPSSSVTANGKVLILAKESLEMVRNVMGVVDSTLGKAEEWVKQKQEVKEMIRERFLQQQQQYRQQQQKDGNYVKPSQDNVDSKD [L160A] here?
Its value is “decreasing interaction”.

— IntAct's records for PubMed 11454208
